The record followed here is publication PMC6994475.

Common to all, as to experiment: EMSA
What all share (details): EMSA: 10 nM 6-FAM oligo, 50 mM HEPES pH 7.5, 250 mM NaCl, 1 mM DTT, 2.5 mM EDTA, 10% glycerol, on ice 10 min, 8% native PAGE; sumo-rA3G after heavy RNase A/T1 …

Data set [1] relates to rA3G rM12 (Macaca mulatta).
Data set [2] concerns rA3G WT (parental construct, R8 K128D) (Macaca mulatta).
The subject of data set [3] is rA3G rM10 (Macaca mulatta).
In data set [4] the test system is rA3G rM11 (Macaca mulatta).
Data set [5] relates to rA3G rM13 (Macaca mulatta).
Data set [6] concerns rA3G rM15 (Macaca mulatta).
The subject of data set [7] is rA3G E/Q (Macaca mulatta).
Data set [8] relates to rA3G rM14 (Macaca mulatta).
The subject of data set [9] is rA3G rM9 (Macaca mulatta).
Data set [10] has as its system rA3G R24T (Macaca mulatta).

pKd: −log10 of the molar value.

For 50 nt ssDNA, the pKd in [1] was 6.73; in [2], 7.62; in data set [3], 7.28; in data set [4], 7.05; in data set [5], 6.81; in [6] it was 7.15. Besides, the pKd in [7] was 8.00; in data set [8] it was 6.99; in data set [9] it was 7.13; in data set [10], 7.29.

For the substance 50 nt ssRNA, the negative-log Kd (pKd) in data set [1] is 7.28; in data set [2] it was 7.66; in data set [3] it was 7.62; in [4], 7.68; in data set [5], 7.37; in data set [6] it was 7.68. Moreover, the negative logarithm of the Kd (pKd) was 7.72 in data set [7], 7.82 in data set [8], 7.70 in [9] and 7.68 in data set [10].
